{"source": "the DeepSol protein solubility set", "data": [{"assay": "soluble on expression in E. coli; label from the status in PepcDB or PDB records", "values": [{"sequence": "MKKKMMTVFTIGVMSLSILGGASPSETQKGKTDYTQRSKEQLNNGKIHAVHTEEKAEKLGIETEGKEQITLEKEIHETEVGREAEQLGISIEGKDVGMLSEEIYETKVKQEALKLGISIENTSIVDLITQINAIKIKDEADKLGISTDGKEIEDIAEEIYGKKVREEAGKLDISQKGKEIEELAQEVYEQKVQEEAKKHHIDLYGKDIYQILREINEQKVLQMADELNMDKMNMNIQELAEKIKKDQPEKGKELNFVPMVRTDADAFYSYLTNLEHHHHHH", "soluble on expression in E. coli": "not soluble"}, {"sequence": "MGSDKIHHHHHHMSKKQFLDQLWARMAQKGDFPTLQYCIDNVFKTLNSDLSVGEMASTVLSDFSLSQKVIRLANSAMYRSFGGEVTTVSRAIMVLGVDTITHLTLGVQVLDFFQGVAPNRPQAARALKQAIMAGEITRALNDARGILGGEEGVVCTLMHHVSRLLVIFYFPDEWDRIMALSADGAMSENDACREVIDISLDDLAKAAAFRWRLPALIADGMLGRELHEETVLETHADWLGAVASLSSDAAASILAEQPEEVVLEPLLTHAQKLGLEPSHVNVAIQQAGTLKASMARSEAPDTGVGSLPDDGGKPADTLTRLQQALAEIRQEGAGMTVSQLAPLVLESAMRALNFSHCFLMLLHPTNKRFGARLGFGEGMRDKLEKLSFEEGFVPDVFHFAMIAPKPLLIEDLRDKAVSHRVPRWYRDAMPDTRSVLLIPVKVRNRCVAMICGDWGATRIAGGLTDGELIAAGDLAGEIATAVLRSAPQR", "soluble on expression in E. coli": "not soluble"}, {"sequence": "MSVSHAQLKAFHAVAVYGSFTRAAERLFLTQPAVSDQVRKLEERYGVLLFHRNKRSVRLSELGERLLAVTQRLFAIEAEAEELLSASSALQTGTLTLAVDAPVHVLPQIARFCERYPGIAVRVETGNTDESLQRLFSYQADLALLGRDVSDERLLSLTLRNDPIVAFVSLSHPWAGRESIRLADLDDMPLVLREQGSVTRQTLEEEMSRAGLRICPAIQVEGREASREAVVAGIGVGVVSAAEFGADTRVHALPIVDCQRRLTETLVCLREQRSRRIVETFLDLVGEDLPAPS", "soluble on expression in E. coli": "not soluble"}, {"sequence": "MGHHHHHHSHKGLIDEITKKNIQLKKEIQKLETELQEATKEFQIKEDIPETKMKFLSVETPENDSQLSNISCSFQVSSKVPYEIQKGQALITFEKEEVAQNVVSMSKHHVQIKDVNLEVTAKPVPLNSGVRFQVYVEVSKMKINVTEIPDTLREDQMRDKLELSFSKFRNGGGEVDRVDYDRQSGSAVITFVEIGVADKILKKKEYPLYINQTCHRVTVSPYTEIHLKKYQIFSGTSKRTVLLTGMEGIQMDEEIVEDLINIHFQRAKNGGGEVDVVKCSLGQPHIAYFEE", "soluble on expression in E. coli": "not soluble"}, {"sequence": "MSLNPSESRSIAALREIVESARPLSYIRSSEEQRVERLLKDAAQRFFSTKVPVWTWSLTEGLRCDDGAVDASASDPRAALDFIAAYQGPALFHLKDFHEPLRERADIRRRLRDLYGACFDQGKFVVISSPVRYIPEELGRSIMYIELTLPDLAELIGFLREEVHAVKALGGSADTDDATLTQIARALQGLTLDESRHAIRRALAAGGGLGADSLPALYEEKRLLVNRTGMIQYVADGTQIASVGGLEIMKKWLMERRELFQLRDSISAEIVPKGVLIMGVSGCGKSLSVKAIASAFGLPLYRIDMTEIFSGRHGSAEGAFVSACRMLEQIAPAVVWFDEIEMGVNSTESAGEQGRIFAFFLTWMQEKTSGLFVAATANRIDLLPAEMTRKGRFDEIFFVDLPLDDERVEIFRIHLERRGIDTTPFDLTRLIKITKGWVGAEVEQCVVSALTTAHLDNREVTVEDLLRAAGKIVPLSKTMKEQVDHIRSWAYNRAVRASEGHHHHHH", "soluble on expression in E. coli": "soluble"}, {"sequence": "MGSDKIHHHHHHMQQSTPYLSFRGIGKTFPGVKALTDISFDCYAGQVHALMGENGAGKSTLLKILSGNYAPTTGSVVINGQEMSFSDTTAALNAGVAIIYQELHLVPEMTVAENIYLGQLPHKGGIVNRSLLNYEAGLQLKHLGMDIDPDTPLKYLSIGQWQMVEIAKALARNAKIIAFDEPTSSLSAREIDNLFRVIRELRKEGRVILYVSHRMEEIFALSDAITVFKDGRYVKTFTDMQQVDHDALVQAMVGRDIGDIYGWQPRSYGEERLRLDAVKAPGVRTPISLAVRSGEIVGLFGLVGAGRSELMKGMFGGTQITAGQVYIDQQPIDIRKPSHAIAAGMMLCPEDRKAEGIIPVHSVRDNINISARRKHVLGGCVINNGWEENNADHHIRSLNIKTPGAEQLIMNLSGGNQQKAILGRWLSEEMKVILLDEPTRGIDVGAKHEIYNVIYALAAQGVAVLFASSDLPEVLGVADRIVVMREGEIAGELLHEQADERQALSLAMPKVSQAVA", "soluble on expression in E. coli": "not soluble"}, {"sequence": "MSLHDKQELSSKSNLNNQKGYLDNEGANSNYESKKQSILSELNQLLKQTTNSLKEAKNTTDNLNASNEANKVVEAVINAVNLISSAADQVKSATKNMHDLAQMAEIDLEKIKNSSDKAIFASNLAKEAYSLTKAAEQNMQKLYKEQQKISESESESDYSDSAEIKQAKEAVEIAWKATVEAKDKLIDVENTVKETLDKIKTETTNNTKLADIKEAAELVLQIAKNAKEIVQEVVALLNTEGHHHHHH", "soluble on expression in E. coli": "soluble"}, {"sequence": "MPTITTKTPVKGLIFNIQKFSINDGPGIRTVVFFKGCPLRCKWCSNPESQSGEQESMYDEQTAKQTIVGDYMTVDDIMKVILQDKDFYEESGGGVTFSGGEVLFQASFAIELAKAVKAAGINLACETTGYARPKVFNEFMSYMDFMYYDCKQWDPAQHRIGTGADNGVILRNLATAVQAHQKMMVRIPVIPGFNYTLNDADHFGQLFNQIGVTEVELLPFHQFGLKKYQDLGRKYALVNVKQLQADDLIDYAEHIRAHGVKVRVNGW", "soluble on expression in E. coli": "not soluble"}, {"sequence": "MEIGDVSTGYLEDALIEFSGRSKRRRLSFNGAEDKPDNDLDHSQNHWGLSENYSCTSSQFAEKNDYDEKKRVVYPFGVVKPGGREEDITLNDINKRILMPSARPVRHPVGDFACRPCVSADGPGLSGKAVVAFTKIQTLGRGTITIIRTKG", "soluble on expression in E. coli": "soluble"}, {"sequence": "MLKHIISAYNFSRDELEDIFALTDKYSKNLNDTRKILSGKTISIAFFEPSTRTYLSFQKAIINLGGDVIGFSGEESTSVAKGENLADTIRMLNNYSDGIVMRHKYDGASRFASEISDIPVINAGDGKHEHPTQAVIDIYTINKHFNTIDGLVFALLGDLKYARTVNSLLRILTRFRPKLVYLISPQLLRARKEILDELNYPVKEVENPFEVINEVDVLYVTRIQKERFVDEMEYEKIKGSYIVSLDLANKMKKDSIILHPLPRVNEIDRKVDKTTKAKYFEQASYGVPVRMSILTKIYGE", "soluble on expression in E. coli": "soluble"}, {"sequence": "MGSDKIHHHHHHMRGVLTMIRLFKAIPELELPVYSGEDSPVDGTEKTTGFLISNHVPGEQVEETLLVASAEIKTSQTGREWLQFTFNSPSGSCKGKQWLNQGTAEEAMRPYLETGIVHVSAKVDEYPVDSGNKSLTVQTVKAVHDQSGTAYLPQMPAGESAKDYRDQLIGLIEKMETPLRQVAHRVVSAYWDDFSTRPAALYHHHAYIGGLLKHTACMMTIGFGICQSERPDLTLLQCIQEAEADHKNDLFQAGERDMRQFAWDDSFDALYQSARSIALLNERPHQDELLLGILLHDIGKIFEYTHLGASGDRFSRLVQTEPASEKLSGIALDPNGVLIGHMPYGCFVLEQALQTEAVRLPVDQYHRLMHMILSHHGKKEWGSSVTPQTTDAWYLHAIDLLDARKEKWRQSQLT", "soluble on expression in E. coli": "not soluble"}, {"sequence": "SAAGSEATTPVIVAAGAGGEEGEHVKPFKPEKAKEIIMSLQQPAIFCNMVFDWPARHWNAKYLSQVLHGKQIRFRMGMKSMSTVPQFETTCNYVEATLEEFLTWNCDQSSISGPFRDYDHSKFWAYADYKYFVSLFEDKTDLFQDVKWSDFGFPGRNGQESTLWIGSLGAHTPCHLDSYGCNLVFQVQGRLECNGMIIAPGPQAILLPQPLKYLGLQETMASLSS", "soluble on expression in E. coli": "soluble"}, {"sequence": "MARTRSADYENIRDTIIERAAAMFARQGYSETSIGDIARACECSKSRLYHYFDSKEAVLRDMLTTHVDSLLERCRQVLYGSNEPKTRFLQIVKLFLEIYATSRDRHVVMLTCLDALPEDQRKALIAKQRELIAYVRDALLQLRPDMAANRTLAHVDTMLFFGMINWTYTWYKADGSVSPDALAERTVQLFLDGYLNLLSA", "soluble on expression in E. coli": "soluble"}, {"sequence": "MALSKIDTEIEQVDQEKYLRQATSYYQPLEKPLKYGPEVNSLSDLVAALHREFESNYVNIEMVNHLMLSYKSNPREWRKYAKFDRYTYTRNLVDAGNGKFNLLILCWGEGHGSSVHDHADSHCFMKMLKGDLREKRYEYPNRSARDNGRSHHPDGEIDSRELVEIGETPIAVNDVAYINDNLGLHRVENPSHSDTSVSLHLYCPPFDTCSVFQDNLKKTTAKVTFWSKYGVRTKQNEQLEHHHHHH", "soluble on expression in E. coli": "not soluble"}, {"sequence": "MGSDKIHHHHHHMFDPESLKKLAIEIVKKSIEAVFPDRAVKETLPKLNLDRVILVAVGKAAWRMAKAAYEVLGKKIRKGVVVTKYGHSEGPIDDFEIYEAGHPVPDENTIKTTRRVLELVDQLNENDTVLFLLSGGGSSLFELPLEGVSLEEIQKLTSALLKSGASIEEINTVRKHLSQVKGGRFAERVFPAKVVALVLSDVLGDRLDVIASGPAWPDSSTSEDALKVLEKYGIETSESVKRAILQETPKHLSNVEIHLIGNVQKVCDEAKSLAKEKGFNAEIITTSLDCEAREAGRFIASIMKEVKFKDRPLKKPAALIFGGETVVHVKGNGIGGRNQELALSAAIALEGIEGVILCSAGTDGTDGPTDAAGGIVDGSTAKTLKAMGEDPYQYLKNNDSYNALKKSGALLITGPTGTNVNDLIIGLIV", "soluble on expression in E. coli": "soluble"}, {"sequence": "MGSDKIHHHHHHMSLRKNLALGSSTVLLTAVLSGCVSLDERSTDTSTENVTTVTATLTSTAAAEPTTRTTVQSATEASTTAPVQCNLDPRTSDFGPYLAQSRTPVGELAGSADSVVQVPDWFYHFQMGDNGYDSCSKLSYVVLNGSNGDAERSTGTGAAIADVVVLFIDGHMVARPAPFEMKTVESVTRVSDSEIQVVYGHAGRSTAEGVTDYFTFNFFVDNGVLSGRGDLPEHIDTHMRLYLL", "soluble on expression in E. coli": "not soluble"}, {"sequence": "VMRLVTLRSHDQYNTTIYAMDDRYRGVFGRRDVLFMNEQDMAAQGLEHGDRVDIHTALPGSALTLEDITVVAYGIAPGTVGAYYPEANVLVPLNYLDEESGTPSYKSVPVRLTLRSKEIRPLVGGR", "soluble on expression in E. coli": "not soluble"}, {"sequence": "MAHHHHHHMFAALSWLLDLDQGHAASSSSTSSCSSYSGSLDADAGVETDPAANHTTFSDAGGQLLAELHISSVAAATLSRSASEAAAPPRGAVYSSARHLEESFADLEARKAEFFAPSPCQEPAEDAGLGLSSLTERGGTPVSPLSCKIVPLGSLCAYANETVSLSPIASPVPAPVSATVATLLAPTHEDERLLLVSEGVMLSARLSSPSRGGPRAAAERAKITNNDGSATGAMGAGVAAPTQRSRILDWDREMHARPQASPPPGLSANRGERAVRSGTGVQERSEQIADAEPGEARLVRGAMKAAFMLSTPPHTPALGAAAFAPAAVPLHPSPPFLGTTVGARDAAVPGYSIERIHDTPAQEDSGVVYLADGLATVTSMDVGDLHRQAEQSSPPLTHPLAAQLTTPSHTKQPHFDFS", "soluble on expression in E. coli": "not soluble"}, {"sequence": "MTRILPCLFLVLLAAAPLLANPANPLNLKKHHGVFCDVCKALVEGGEKVGDDDLDAWLDVNIGTLCWTMLLPLHHECEEELKKVKKELKKDIENKDSPDKACKDVDLC", "soluble on expression in E. coli": "not soluble"}]}]}
